{"source": "the nanobody polyreactivity screen of Harvey et al. (2022)", "data": [{"experiment": "yeast display, Sf9 membrane polyspecificity reagent, FACS + sequencing; frameworks hold sequencing errors", "method_in_brief": "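Sorting gates, low and high (top ~1%), were placed on anti-HA fluorescence to track expression and on streptavidin fluorescence to track reagent binding. A clone's polyreactivity label is taken from the gate it came out of. The reagent was 10% biotinylated, detergent-solubilized Sf9 membrane, applied for 1 hour at 4 °C to galactose-induced yeast display cells.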", "values": [{"sequence": "QVQIVESGGGLVQAGGSLRLSCAASGRTTSTNAMGWYRQAPGKERELVASISWRGGSTYYADSVKGRFTISRDNAKNTVYLEMNCLKPEDTAVYYCAASWPRWWRFGYWGQGTQVTVSS", "polyreactivity (PSR sort gate)": "low polyreactivity"}, {"sequence": "QVQLVESGGGLVQAGGSLRLSCAASGINFYSYAMGWYRQAPAKERELVAAITLTVGTTYYADSVKGRFTISRDIEKNTVSLKMNSVKREDTACYYCAAQYWWWSRFEYESWGQGTQVTVSS", "polyreactivity (PSR sort gate)": "low polyreactivity"}, {"sequence": "QVQLVESGGGLVQAGGRLLLSSAASGSTFIWNGMGWYRQAPGKERELVAAITSSSTYYADSVKGRFTISRDNAKNTVYLQMNSLKPEDTAVYYCAATFIQVVVNVQLYDYDYWGQGTQVTVSS", "polyreactivity (PSR sort gate)": "low polyreactivity"}, {"sequence": "QVQLVESGGGLVQAGGSLRLSCAASGSIFSIYAMGWYRQAPGKERELVAAISWSGGSTYYADSVKGRFTISRDNAKNTVYLQMTSQKPEDTAVYYCLRQDYHYHPYDYWGQGTQVTVSS", "polyreactivity (PSR sort gate)": "low polyreactivity"}, {"sequence": "QVQLVESGGGLVQAGGSLRLSCAASGRIFRYNAMGWYRQAPGKERELVAAISGTGDRTYYADSVKGRFTISRDNAKNTVYLQMNSLKPEDTAVYYCAARGLFFRNRYGYWGQGTQVTVSS", "polyreactivity (PSR sort gate)": "high polyreactivity"}, {"sequence": "QVQLVESGGGLVQAGGSLRLSCAASGSIFSFYAMGWYRQAPGKERELVAAIDVSGGSTYYADSVKGRFTISRDNAKNTVYLQMNSLKPEDTAVYYCAKDVRDQYDYWGQGTQVTVSS", "polyreactivity (PSR sort gate)": "low polyreactivity"}, {"sequence": "QVQLVESGGGLVQAGGSLRLSCAASGRIFAWNDMGWYRQAPGKESELVAAITSGGSTYYADSVKGRFTISRDNAKNTVYLQMNCLKPEDTAVYYCAAGSAYYSQRYFAYGYDSWGQGTQVTVSS", "polyreactivity (PSR sort gate)": "low polyreactivity"}, {"sequence": "QVQLVESGGGLVQAGGSLRLSSAASGFTFKAYALGWYRQAPGTERELVAAITKSGGRTFYADSVKGRFTISRDNAKNTVYLQINCLNPEDTAVYYCSGRRWGYWTGYRGLDYDYWGQGTQVTVSS", "polyreactivity (PSR sort gate)": "high polyreactivity"}, {"sequence": "QVQLVESGGGLVQAGGSLRLSCAASGSTFFPYAMGWYRQAPGKERELVAAIRWSGGRTYYADSVKGRFTISRDNAKNTVYLQMNSLKPEDTAVYYCAAEKYLDYDYWGQGTQVTVSS", "polyreactivity (PSR sort gate)": "high polyreactivity"}, {"sequence": "QVQLVESGGGLVQAGVSLRLSCAASGSTLVYYAMGWYRQAPGKERELVAAITRSGDNTYYADSVKGRFTISRDNAKNTVYLQMNSLKPEDTAVYYCAVKKRVYSGDYWGQGTQVTVSS", "polyreactivity (PSR sort gate)": "high polyreactivity"}, {"sequence": "QVQLVESGGGLVQAGGSLRLSSAASGFTFEFYAMGWYRQAPGKERELVAAITGSGGSTYYADSVKGRFTISRDNAKNTVYLQMNCLKPEDTAVYYWNAVTRRSAQVGHDYWGQVTQVTVSS", "polyreactivity (PSR sort gate)": "high polyreactivity"}, {"sequence": "QVQLVESGGGLVQAGGSLRLSCAASGRTFSVYAMGWYRQAPGKERELVAVISYRDGTTYYADSVKGRFTISRDNAKNTVYLQMNSLKPEDTAVYYCAADFFSDFDWGQGTQVTVSS", "polyreactivity (PSR sort gate)": "low polyreactivity"}, {"sequence": "QVQLVESGGGLVQAGGSLRLSCAASGFTFSTNAMGWYRQAPGKERELVAAISCTGGSTYYADSVKGRFTISRDNAKNTVYLQMNSLKPEDTAVYYCATKFFNPGMYFWGQGTQVTVSS", "polyreactivity (PSR sort gate)": "high polyreactivity"}, {"sequence": "QVQLVESGGGLVQAGGSLRLSCAASGSTLYRYAMGWYRQAPGKERELVAAISSAGSTHYADSVKGRFTISRDNAKNTVYLQMNSLKTEDTAVYYCADKRYLKYGYWGQGTQVTVSS", "polyreactivity (PSR sort gate)": "high polyreactivity"}, {"sequence": "QAELVESGGGLVQAGGSLRLSCAASGFTFTAYPMGWYRQAPGKERELVAAISYRGGRTNYAYSVKGRFTISRDNAKNTVYLQMNRLKPEDTAVYYCAARPRISTREMDYWGQGTQVTVSS", "polyreactivity (PSR sort gate)": "high polyreactivity"}, {"sequence": "QVQLVESGGGLVQAGGSLRLSCAASGRTFSAYAMGWYRQAPGKERELVARITSVDSTNYADSVKGRFTISRDNAKNTVYLQMNSLKPDDTAVYYCNATFVFPFVDYDDYWGQGTQVTVSS", "polyreactivity (PSR sort gate)": "low polyreactivity"}, {"sequence": "QVQLVESGGGLVQAGGSLRLSCAASGRIFYYYAMVWYRQAPGKERELVAAITRRGGSTYYADSVKGRFTISRDNAMNTVYLLMNSLKPEDTAVYYCAKPVRTGWLDGDYWGQGTQVTVSS", "polyreactivity (PSR sort gate)": "low polyreactivity"}, {"sequence": "QVQLVESVGGLVQAGGSLRLSCAASGRTFGRYAMGWYRQAPGKERELVAGISRSGDSTHYADSVKGRFTISRDNAKNTVSLQMNSLKPEDTAVYYCNKETPTIGARKYEYWGQGTQVTVSS", "polyreactivity (PSR sort gate)": "low polyreactivity"}, {"sequence": "QVQLVESGGGLVQAGGSLSLSCAASGNTFWGYAMGWYRQAPGKEREFVARINWSGGRTYYAESVKGRFTISRDNAKNTVYLQMNSLKPEDTAVYYCAATSLIYGYRTYDYWGQGTQVTVSS", "polyreactivity (PSR sort gate)": "high polyreactivity"}, {"sequence": "QVQLVESGGGLDQAGGSLRLSCAASGLIFLVNAMGWYRQPPWKERDLVAAIDLDGGITYADSVKGRFTISRDNAKNTVYLQMNSLKPEDTAVYYCAADPSSYGRFTYDYWGQGTQVTVSS", "polyreactivity (PSR sort gate)": "low polyreactivity"}, {"sequence": "QVQLVESGGGLVQAGGSLRLSCAASGLIFWYYAMGRYRQAPGKERELVASISSGGDTTYADSVKGRFTISRDNAKNTVYLQMNSLKPEDTAVYYGAAERYVRVWVAGILHYDYWGQGTQVTVSS", "polyreactivity (PSR sort gate)": "low polyreactivity"}, {"sequence": "QVQLVESGGGLVQAGGSLRLSCAASGSIFGYYSMGCYRQAPGKERELVATITFGGGSTYYADSVKGRFTISRDNAKNTVYLQMNSLKPEDTAVYYCAADSGYLGFYGDEYSWGQGTQVTVSS", "polyreactivity (PSR sort gate)": "low polyreactivity"}, {"sequence": "QVQLVESGGGLVQAGGSLRLSCAASGFIFDTYAMGWYRQAPVKERELVAAISWTGTDTYYADSVKGRFTISRDNAKNTVYLQMNSLKPEDTAVYYCAARSRYKYSPSGDYWGQGTQVTVSS", "polyreactivity (PSR sort gate)": "high polyreactivity"}, {"sequence": "QVQLVESGGGLVQAGGSLRLSCAASGRTFGIYAMGWYRQAPGKERELVASITRSSGGTYYADSVKGRFTISRDNAKNTVYLQMNSLKPEDTAVYYCAARLQGRYKYGYWGQGTQVTVSS", "polyreactivity (PSR sort gate)": "high polyreactivity"}, {"sequence": "QVQLVESGGGLVQAGGSLRLSCAASGLTFSAYAMGWYRQAPGKERELVAAITSSGGSTYADSVKGRFTLSRDNAKNTVYLQMNSRKPEDTAVYYCNADLGDYGWYSSYDYWGQGNQVTVSS", "polyreactivity (PSR sort gate)": "low polyreactivity"}, {"sequence": "QVQLVETGGGLVQAGGSLRLSCAASGRTIVYYDMGWYRQAPGKEREFVSTITSSGGSTYYADSVKGRFTISRDNAKNTVYVQMNSLKPEDTAVYYCAAYPYIRYSKVSKYYYWGQGTQVTVSS", "polyreactivity (PSR sort gate)": "high polyreactivity"}, {"sequence": "QVQLEDSGGGLVQAGGSLRLSCAASVSTFSRNAMGWYRQAPGKEREFVAAISWSGSSTYYADSVKGRFTISRDNAKNTVFLQMNSLKPEDTAVYYCAARETWYPYYWMGYWGQGTQVTVSS", "polyreactivity (PSR sort gate)": "high polyreactivity"}, {"sequence": "QVQLVESGGGLVQAGGSLRLSCAASGITISWYAMGWYRQAPGKERELVAAITRTAGTNYADSVKGRFTISRDNAKNTVYLQMNSLKPEDTAVYYCAAVGHGGLLYWRNYGYGYWGQGTQVTVSS", "polyreactivity (PSR sort gate)": "low polyreactivity"}, {"sequence": "QVQLVESGGGLVQAGGSLRLSCAASGYTFPLYAMGWYRQAPGKERELVADINIGGASTYYADSVKGRFTISRDNAKNTFYLQMKSLKPEDTAVYYCAKEYFDGFFPTFYYDYWGQGTQVTVSS", "polyreactivity (PSR sort gate)": "low polyreactivity"}, {"sequence": "QVQLVESGGGLVQAGGSLRLSCAASRSTFAYYSMGWYRKEPGKETELVAAITRGGSTNYADSVKGRFRISRDNAKNTVLLQMNSLKPEDTAVYYCAAGDVQDYEYDYLGQGTQVTVSS", "polyreactivity (PSR sort gate)": "low polyreactivity"}, {"sequence": "QVQLVESGGGLVQAGGSLRLSCAASGRTFVTNAMGWYRQAPGKERELVATIRFSGGGTYYAVSVKGRFTISRDNAKNTVYLQMNSLKPEDTAVYYCNADSIDPFLYDYWGQGTQVTVSS", "polyreactivity (PSR sort gate)": "low polyreactivity"}, {"sequence": "QVQLVESGGGLVQAGGSLRLSCAASGSIFRVYAMGWYRQAPGKEREFVAAISYSTGSTYADSVKGRFTISRDNAKNTVYLQMNSLKPEDTAVYYCNARFRYGSRDEYDYWGQGTQVTVSS", "polyreactivity (PSR sort gate)": "low polyreactivity"}, {"sequence": "QVQLVETGGGLVQAGGSLRLSCAASGSIFGGYAMGWYRQAPGKERELVAGITRSGGSTYYADSVKGRFTISRDNAKNTVYLQMNSLKPEDTAVYYCAVEIQFYRSPRKVRSYDYWGQGTQVTVSS", "polyreactivity (PSR sort gate)": "low polyreactivity"}, {"sequence": "QVQLVESGGGLVQAGGSLRLSCAASGRIFGVYAMGWYRQAPGKERELVASITWRGGSTYYADSVKGRFTISRDNAKNTVYLQMNSLKPEDTAVYYCAAAYWYAYEYWGQGTQVTVSS", "polyreactivity (PSR sort gate)": "high polyreactivity"}, {"sequence": "QVQLVESGGGLVQAGGSLRLSCAASGIIFYIYAMGWYRQAPGKERELVAAISSGGNTYYADSVKGRFTISRDNAKNTVYLQMNSLKPEDTAVYYCAAYSRKVSFQYRYDYWGQGTQVTVSS", "polyreactivity (PSR sort gate)": "high polyreactivity"}, {"sequence": "QVQLVESGGGLVQAGGSLRLSCAASGRTFAPYTMGWYRQAPGKERELVAAINFNGGGTYYADSVKGRFTISRDNAKNTVYLQMNSLKPEDTAVYYCYYLYNYWGQGTQVTVSS", "polyreactivity (PSR sort gate)": "low polyreactivity"}, {"sequence": "QDQLVESRGGLVQAGGSLRLRCAASGSIFIGYAMGWYRQAPGKQRELVAAISGSGSSTYYADSVKGRFTISRDNAKNNDYLQMNILKPEDTAVYYCAAAPRFRGYDYCGQGTQVTVSS", "polyreactivity (PSR sort gate)": "high polyreactivity"}, {"sequence": "QVQLVESGGGLVQAGGSLRLSCAASGSIFYQNAMGWYRQAPGKEREFVAAITWIGGSTYYADSVKGRFTISRDNAKNSVYLQMNILKPEDTAVYYCAADSVDNIYYGFDYWGQGTQVTVSS", "polyreactivity (PSR sort gate)": "high polyreactivity"}, {"sequence": "QVQLVESGGVLVQAGGSLRLSCAASGRIFDRNAMGWYRQAPGKERELVAAIDDSGGDTSYADSVKGRFTISRDNAKNTVYLQMNSLKPEDTAVYYCNAGYADFVTYPRYYYWGQGTQVTVSS", "polyreactivity (PSR sort gate)": "low polyreactivity"}, {"sequence": "QVQLVESGGGLVQAGGSLRLSCAASGSTFTSYAMGWYRQAPGKERELVATISKISGSTYYADSVKGRFTISRDNAKNTVYLQMNSLKPEDTAVYYCAAKQGWVQSSILWYRAYGYWGQGTQVTVSS", "polyreactivity (PSR sort gate)": "high polyreactivity"}, {"sequence": "QVQLVESGGGLVQAGGSLRLSCAASGFIFTPYTKGWYRQATGKERELVAAITDGSSTYYADSVKGRFTISRDNAKNTVYLQMNSLKPEDTAVYYCNADTLTTTRRFNPYDYWGQGTQVTVSS", "polyreactivity (PSR sort gate)": "low polyreactivity"}, {"sequence": "QVQLVESGGGLVQAGGSLRLSCAASGITFQRYALGWYRQAPGKERELVAAITRGGSTNYADSVKGRFTISRDNAKNTVYLQMNSLKPEDTAVYYCAAGARYGYGYWGQGTQVTVSS", "polyreactivity (PSR sort gate)": "high polyreactivity"}, {"sequence": "QVQLVDSGGGLVQAGGSLRLSCAASGITFYYYAMGSYRQAPGKETELVAAISSRGGSTYYADSVKGRFTISRDNAKNTVYFQMNSLKQEDTAVYYCAADYYSSYYSSYIKSYYWGLGTQVTVSS", "polyreactivity (PSR sort gate)": "high polyreactivity"}]}]}
